Experimental data from patent publication US5591427A, “Human Interleukin-3(Il-3) variants and their use to promote or antagonize IL-3-mediated processes” (Medvet Science Pty. Ltd., priority 1979, dated 1997).

Experiments:
[1] = test system: bone marrow progenitor cells; experiment: Colony assay: clonal proliferation and differentiation of bone marrow progenitor cells in semi-solid agar; assay type: cell-based
Protocol: (a) Colony assay: this assay measured the clonal proliferation and differentiation of bone marrow progenitor cells in semi-solid agar and was carried out as described (Lopez et. al., 1985, Blood 72, 1797-1804). Briefly, low density, macrophage-depleted bone marrow cells were cultured at a concentration of 0.5 to 1×10^5 /mL in Iscove's modified Dulbecco's medium (IMDM, GIBCI, Grant Island, N.Y.), containing 0.33% agar (Difco, Detroit), 25% FCS (Commonwealth Serum Laboratories, Parkville, Victoria, Australia), and 20 μmol/LK2-mercaptoethanol. Different dilutions of IL-3- containing COS cell supernatants were added to each plate. Plates were prepared in triplicate and scored after incubation at 37° C. in 5% CO2 in a humid atmosphere for 14 days. Clones containing 40 cells were scored as colonies.

[2] = target: T1, IL-3 high affinity receptor of monocytes (Homo sapiens, UniProt P26951+P32927); experiment: Competition for 125I-IL-3 binding to the high affinity receptor of monocytes; conditions: high affinity receptor on monocytes
T1 construct: endogenous in cells; host or cells: freshly purified human peripheral blood monocytes
T1 sequence (P26951 19-378): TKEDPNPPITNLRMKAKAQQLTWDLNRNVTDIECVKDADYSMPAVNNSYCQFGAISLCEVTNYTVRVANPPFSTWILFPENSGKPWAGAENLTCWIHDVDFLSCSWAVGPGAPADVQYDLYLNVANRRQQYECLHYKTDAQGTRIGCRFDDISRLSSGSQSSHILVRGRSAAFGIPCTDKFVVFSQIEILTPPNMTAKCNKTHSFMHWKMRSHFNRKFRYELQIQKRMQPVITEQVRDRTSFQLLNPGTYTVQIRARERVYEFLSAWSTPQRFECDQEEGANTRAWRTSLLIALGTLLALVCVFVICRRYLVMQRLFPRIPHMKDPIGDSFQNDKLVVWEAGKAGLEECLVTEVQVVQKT
T1 sequence (P32927 17-897): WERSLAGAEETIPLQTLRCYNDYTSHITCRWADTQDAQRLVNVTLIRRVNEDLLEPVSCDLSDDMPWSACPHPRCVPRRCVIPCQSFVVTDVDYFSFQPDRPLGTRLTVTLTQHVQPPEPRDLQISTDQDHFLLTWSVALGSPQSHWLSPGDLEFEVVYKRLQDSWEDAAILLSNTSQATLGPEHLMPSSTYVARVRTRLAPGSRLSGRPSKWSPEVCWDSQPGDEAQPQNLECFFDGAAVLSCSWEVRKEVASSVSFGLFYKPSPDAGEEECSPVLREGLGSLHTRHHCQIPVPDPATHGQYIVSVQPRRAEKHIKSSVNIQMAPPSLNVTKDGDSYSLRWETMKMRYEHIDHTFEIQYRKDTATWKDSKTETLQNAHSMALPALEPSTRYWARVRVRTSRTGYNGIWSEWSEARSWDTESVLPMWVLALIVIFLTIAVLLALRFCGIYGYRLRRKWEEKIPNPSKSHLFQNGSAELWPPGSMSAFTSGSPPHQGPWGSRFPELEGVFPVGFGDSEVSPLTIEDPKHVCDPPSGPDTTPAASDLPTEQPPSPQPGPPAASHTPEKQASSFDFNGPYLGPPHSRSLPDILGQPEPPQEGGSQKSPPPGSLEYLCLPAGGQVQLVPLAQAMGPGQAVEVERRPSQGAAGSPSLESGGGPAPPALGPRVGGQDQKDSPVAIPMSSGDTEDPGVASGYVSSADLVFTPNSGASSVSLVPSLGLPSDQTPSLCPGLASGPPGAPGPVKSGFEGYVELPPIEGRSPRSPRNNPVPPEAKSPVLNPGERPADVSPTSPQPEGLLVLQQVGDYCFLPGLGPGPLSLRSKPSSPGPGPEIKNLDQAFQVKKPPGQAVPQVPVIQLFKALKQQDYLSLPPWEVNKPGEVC
Protocol: (a) Radioiodination of hIL-3: rh IL-3 (gift from Dr. L. Park, Immunex Corporation, Seattle, Wash.) was radioiodinated by the ICI method as previously described (Contreras et. al., supra). Iodinated protein was separated from free ^125 I by chromatography on a Sephadex G-25 PD 10 column (Pharmacia, Uppsala, Sweden) equilibrated in phosphate-buffered saline (PBS) containing 0.02% Tween 20, and stored at 4° C. for up to 4 weeks. Before use, the iodinated protein was purified from Tween and nonprotein-associated radioactivity by cation exchange chromatography on a 0.3-ml CM-Sepharose CL-6B column (Pharmacia) and stored at 4° C. for up to 5 days.
(b) Competition Binding assay. Freshly purified monocytes were suspended in binding medium consisting of RPMI 1640 supplemented with 20 mmol/L/HEPES and 0.5% bovine serum albumin (BSA). […] Cell suspensions were then overlaid on 0.2 mL FCS at 4° C. and centrifuged for 30 seconds at a maximum speed in a Beckman Microfugre 12. The tip of each tube was cut off above the visible cell pellet and counted in a Packard Auto-Gamma 5650 (Downer's Grove, Ill). The results are expressed as Percent competition where 100% is the competition observed in the presence of 100 fold excess native IL-3.

[3] = test system: chronic myeloid leukaemic (CML) cells; experiment: Proliferation of chronic myeloid leukaemic (CML) cells, [3H] thymidine incorporation; assay type: cell-based, human
Protocol: (b ) Proliferation of chronic myeloid leukaemic (CML) cells: Primarily CML cells from one patient were selected for their ability to incorporate [^3 H] thymidine in response to IL-3 as described (Lopez el. al., supra ). Briefly, CML cells were placed at 2×10^5 cells/mL fresh medium containing different concentrations of IL-3. Cells were incubated for 24 hours in a flat bottom 96-well NUNCLON plates (2×10^4 cells/well) before being pulsed with [^3 H] thymidine (0.5 μCi/well) for four more hours at 37° C. The cells were then harvested onto glass filters with a Titertek automated cell harvester and counted into a Beckman liquid scintillation counter. Data are expressed in cpm, and each point is the mean of six replicates.

B1: M37: human IL-3 mutant, Asp 101 replaced by Ala and Lys 116 by Val (protein, UniProt P08700 20-152, looked up, variant D101A K116V)
Interleukin-3: APMTQTTPLKTSWVNCSNMIDEIITHLKQPPLPLLDFNNLNGEDQDILMENNLRRPNLEAFNRAVKSLQNASAIESILKNLLPCLPLATAAPTRHPIHIKAGDWNEFRRKLTFYLVTLENAQAQQTTLSLAIF
With B1 the “number of day 14 colonies” value [1] was “increase in the number of day 14 colonies”, the “Relative biological activity, PROLIFERATION COLONIES” value ([1]; concentration of IL-3 mutant giving 50% of biological activity compared to that of wild type IL-3, mean ± SD) was 1700 and the “fold higher binding affinity than wild-type IL-3” value [2] was 10-15 fold. The “fold higher binding affinity than wild-type IL-3” value ([2]; listed as IL-3 (Ala^101, Val^116)) was 16 fold, the “stimulation of CML cell proliferation” value ([3]; FIG. 2, FIG. 8) was “more potent than the wild type IL-3” and the “Relative biological activity, PROLIFERATION CML” value ([3]; concentration of IL-3 mutant giving 50% of biological activity compared to that of wild type IL-3) was 1694. The “increase in biological activity versus wild type” value ([3]; summary statement over the functional assays of the Table (colonies, CML, monocyte)) was 15-20 fold.
